Assay results published in patent US20050142135A1, “Agents and methods for modulating interactions between gonadotropin hormones and receptors” (University of Kentucky Research Foundation, priority 2003, published 2005).

System: human FSHR
Experiment: FSH dependent intracellular cAMP assay, wild type and mutant FSHR in HEK 293 cells
Type: cell-based
Settings: for FSH dependent cAMP induction / EC50 compared with the wild type receptor, in words: HEK 293 cells
Description: Mutant FSHR cDNAs were prepared in the pSELECT vector using the Altered Sites Mutagenesis system (Promega), sequenced on a Beckman CEQ 2000XL capillary sequencer, subcloned into pcDNA3 (Invitrogen), and sequenced again to verify mutation sequences. […] Wild type and mutant receptor constructs were transfected into HEK 293 cells by the calcium phosphate method as previously described. Stable cell lines were established in minimum essential medium containing 10% horse serum and 500 μg/ml of G418. These cells were used for hormone binding, cAMP production. All assays were carried out in duplicate and repeated 4-5 times, and means±S.D. were calculated.
The Kd values were determined by Scatchard plots. For intracellular cAMP assay, cells were washed twice with Dulbecco's modified Eagle's medium and incubated in the medium containing 0.1 μg/ml isobutylmethylxanthine for 15 mm. Increasing concentrations of FSH were then added and incubation was continued for 45 mm at 37° C. After removing the medium, the cells were rinsed once with fresh medium without isobutylmethylxanthine, lysed in 70% ethanol, freeze-thawed in liquid nitrogen, and scraped.
Human FSH (the National Hormone and Pituitary Program) was radioiodinated as previously described for radioiodination of hCG. […] The Kd values were determined by Scatchard plots. Truncated exodomain was solubilized in Nonidet P-40 and assayed for hormone binding as described previously. For intracellular cAMP assay, cells were washed twice with Dulbecco's modified Eagle's media and incubated in the media containing isobutylmethylxanthine (0.1 mg/ml) for 15 minutes. Increasing concentrations of FSH were then added and the incubation was continued for 45 minutes at 37° C. After removing the media, the cells were rinsed once with fresh media without isobutylmethylxanthine, lysed in 70% ethanol, freeze-thawed in liquid nitrogen, and scraped. […] Exoloop 3 of FSHR was modeled based on the crystal structure of rhodopsin as a template.

B1: I^23A: human FSHR with Ala substituted for I23 (protein)
chain: CHHRICHCSNRVFLCQESKVTEAPSDLPRNAIELRFVLTKLRVIQKGAFSGFGDLEKIEISQNDVLEVIEADVFSNLPKLHEIRIEKANNLLYINPEAFQNLPNLQYLLISNTGIKHLPDVHKIHSLQKVLLDIQDNINIHTIERNSFVGLSFESVILWLNKNGIQEIHNCAFNGTQLDELNLSDNNNLEELPNDVFHGASGPVILDISRTRIHSLPSYGLENLKKLRARSTYNLKKLPTLEKLVALMEASLTYPSHCCAFANWRRQISELHPICNKSILRQEVDYMTQARGQRSSLAEDNESSYSRGFDMTYTEFDYDLCNEVVDVTCSPKPDAFNPCEDIMGYNILRVLIWFISILAITGNIIVLVILTTSQYKLTVPRFLMCNLAFADLCIGIYLLLIASVDIHTKSQYHNYAIDWQTGAGCDAAGFFTVFASELSVYTLTAITLERWHTITHAMQLDCKVQLRHAASVMVMGWIFAFAAALFPIFGISSYMKVSICLPMDIDSPLSQLYVMSLLVLNVLAFVVICGCYIHIYLTVRNPNIVSSSSDTRIAKRMAMLIFTDFLCMAPISFFAISASLKVPLITVSKAKILLVLFHPINSCANPFLYAIFTKNFRRDFFILLSKCGCYEMQAQIYRTETSSTVHNTHPRNGHCSSAPRVTSGSTYILVPLSHLAQN
EC50 value of cAMP induction, fold higher than wild type (FSH dependent cAMP): 23 fold | maximal cAMP level, fold lower than wild type (FSH dependent cAMP): 2.6 fold

B2: L^583 F: human FSHR mutant, Phe for L583 (protein)
chain: CHHRICHCSNRVFLCQESKVTEIPSDLPRNAIELRFVLTKLRVIQKGAFSGFGDLEKIEISQNDVLEVIEADVFSNLPKLHEIRIEKANNLLYINPEAFQNLPNLQYLLISNTGIKHLPDVHKIHSLQKVLLDIQDNINIHTIERNSFVGLSFESVILWLNKNGIQEIHNCAFNGTQLDELNLSDNNNLEELPNDVFHGASGPVILDISRTRIHSLPSYGLENLKKLRARSTYNLKKLPTLEKLVALMEASLTYPSHCCAFANWRRQISELHPICNKSILRQEVDYMTQARGQRSSLAEDNESSYSRGFDMTYTEFDYDLCNEVVDVTCSPKPDAFNPCEDIMGYNILRVLIWFISILAITGNIIVLVILTTSQYKLTVPRFLMCNLAFADLCIGIYLLLIASVDIHTKSQYHNYAIDWQTGAGCDAAGFFTVFASELSVYTLTAITLERWHTITHAMQLDCKVQLRHAASVMVMGWIFAFAAALFPIFGISSYMKVSICLPMDIDSPLSQLYVMSLLVLNVLAFVVICGCYIHIYLTVRNPNIVSSSSDTRIAKRMAMLIFTDFLCMAPISFFAISASLKVPFITVSKAKILLVLFHPINSCANPFLYAIFTKNFRRDFFILLSKCGCYEMQAQIYRTETSSTVHNTHPRNGHCSSAPRVTSGSTYILVPLSHLAQN
FSH dependent cAMP induction / EC50 compared with the wild type receptor, in words: induced significant amounts of cAMP with reasonable EC50 values

B3: L^583 A: human FSHR exoloop 3 mutant, Ala for L583 (protein)
chain: CHHRICHCSNRVFLCQESKVTEIPSDLPRNAIELRFVLTKLRVIQKGAFSGFGDLEKIEISQNDVLEVIEADVFSNLPKLHEIRIEKANNLLYINPEAFQNLPNLQYLLISNTGIKHLPDVHKIHSLQKVLLDIQDNINIHTIERNSFVGLSFESVILWLNKNGIQEIHNCAFNGTQLDELNLSDNNNLEELPNDVFHGASGPVILDISRTRIHSLPSYGLENLKKLRARSTYNLKKLPTLEKLVALMEASLTYPSHCCAFANWRRQISELHPICNKSILRQEVDYMTQARGQRSSLAEDNESSYSRGFDMTYTEFDYDLCNEVVDVTCSPKPDAFNPCEDIMGYNILRVLIWFISILAITGNIIVLVILTTSQYKLTVPRFLMCNLAFADLCIGIYLLLIASVDIHTKSQYHNYAIDWQTGAGCDAAGFFTVFASELSVYTLTAITLERWHTITHAMQLDCKVQLRHAASVMVMGWIFAFAAALFPIFGISSYMKVSICLPMDIDSPLSQLYVMSLLVLNVLAFVVICGCYIHIYLTVRNPNIVSSSSDTRIAKRMAMLIFTDFLCMAPISFFAISASLKVPAITVSKAKILLVLFHPINSCANPFLYAIFTKNFRRDFFILLSKCGCYEMQAQIYRTETSSTVHNTHPRNGHCSSAPRVTSGSTYILVPLSHLAQN
FSH dependent cAMP induction / EC50 compared with the wild type receptor, in words: did not produce cAMP
